These results are taken from patent US20240272082A1 (ARIZONA BOARD OF REGENTS ON BEHALF OF ARIZONA STATE …, published 2024).

“And” between values parts separate entries of the source, which are not always exact repeats. Equal values may be shown once. No end group written: not given here.

Test [1] concerns the target T1, proprotein convertase subtilisin/kexin type 9 (PCSK9) (UniProt Q8NBP7 31-692, limits assumed).
T1 construct: Analyte in solution in both CSOD and SPR; also called PCSK9 protein
The test can be described thus: CSOD; comparison of KD values of Table 2.

Test [2] addresses T1, proprotein convertase subtilisin/kexin …. Nature of the test: CSOD; phage immobilised on fiber probe, PCSK9 in solution, global first-order fit.
From the text: The fiber probes were switched from a well containing a buffer to a well containing PCSK9 at 0 s for the measurement of the association process (downward facing arrow) and then switched back to the buffer well at the time indicated by the upward facing arrow for the measurement of the dissociation process.
The binding of different concentrations of PCSK9 proteins to the functionalized probes was studied in a 40-time diluted PBS buffer. For each measurement, a baseline was first established by dipping the functionalized fiber tip into a microplate well with a buffer; then, the fiber was switched to another well containing PCSK9 protein solution to measure the association curve. Finally, the fiber was moved back to the buffer well and the dissociation process was recorded. By fitting the kinetic curves at different concentrations globally with first order kinetics using Scrubber v.2.0c, the association rate constants (ka), dissociation rate constants (kd), and equilibrium constants (KD) for all samples are summarized in Table 2.

T1 sequence (Q8NBP7 31-692 limits assumed): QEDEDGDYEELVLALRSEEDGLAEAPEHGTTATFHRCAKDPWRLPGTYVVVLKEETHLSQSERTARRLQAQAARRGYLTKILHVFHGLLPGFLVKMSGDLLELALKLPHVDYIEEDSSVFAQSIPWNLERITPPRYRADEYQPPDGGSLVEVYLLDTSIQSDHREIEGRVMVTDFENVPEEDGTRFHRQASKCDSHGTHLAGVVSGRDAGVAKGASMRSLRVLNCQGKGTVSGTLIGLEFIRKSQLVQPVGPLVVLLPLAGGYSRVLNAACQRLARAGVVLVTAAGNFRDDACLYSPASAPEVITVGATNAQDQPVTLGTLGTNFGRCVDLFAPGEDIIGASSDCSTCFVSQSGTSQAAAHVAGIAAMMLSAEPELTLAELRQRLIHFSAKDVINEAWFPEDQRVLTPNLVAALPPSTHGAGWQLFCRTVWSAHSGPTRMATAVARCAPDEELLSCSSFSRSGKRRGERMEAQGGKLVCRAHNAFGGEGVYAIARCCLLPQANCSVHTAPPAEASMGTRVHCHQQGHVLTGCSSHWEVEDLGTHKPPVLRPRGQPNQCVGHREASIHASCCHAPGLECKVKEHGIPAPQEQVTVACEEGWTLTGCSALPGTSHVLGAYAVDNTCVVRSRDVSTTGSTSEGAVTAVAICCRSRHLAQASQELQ

B1: SG pep2-8-2478 (M13 phage-displayed peptide, fused to pVIII) (peptide)
peptide: SGTVFTSWEEYLDWV
modifications: not fully specified
notes: Samples A and B are identical replicates prepared separately; also called Sample 5A; Sample 5B; not shown: M13 major coat protein pVIII (display carrier) and any linker between peptide and pVIII
The Kd is the free concentration of one partner at which half of the binding sites on the other are occupied at equilibrium, for simple one-to-one binding. By koff is commonly meant the rate constant with which the complex falls apart. A word on the kon: it is a measure of how fast the partners come together. Consider B1, for which the “fold affinity change against Sample #4 (no SG pep2-8-2478)” value in test [1] is around 2 fold. In addition, in test [2], the Kd is 0.37 µM and 0.38 µM; the koff is 0.00154 s⁻¹ and 0.00119 s⁻¹; the kon was 4200 M⁻¹ s⁻¹ and 3130 M⁻¹ s⁻¹.
